Reference: US20070196337A1, “RECOMBINANT PERFORIN, EXPRESSION AND USES THEREOF” (priority 2004, published 2007)

Key:
[1] = Storage stability of purified recombinant perforin at 4° C.; details: purified recombinant human perforin, storage at 4° C.
[2] = system: Sheep red blood cells (sRBC); assay: Erythrocyte lysis assay with RBL granule extracts, haemoglobin release; format: cell-based; details: WT-Pfp at a 1/8 dilution
Protocol: Sheep red blood cells (sRBC) were washed three times then resuspended at 10^8/mL in 150 mM NaCl. For the assay, 50 ul of freeze/thawed granule extract [fraction #8 (see above)] was incubated with 20 μl of the sRBC suspension in the presence of 2 mM CaCl2 at 37° C. for 30 minutes in v-bottom 96 well plates. For maximal haemoglobin release, H2O was used to lyse the red blood cells. Plates were centrifuged at 1500 rpm for 5 minutes and the haemoglobin released into the supernatant was estimated by measuring the optical density at 405 nm. Cell lysis was expressed as a percentage of maximal haemoglobin release.

Jurkat cells = assay: Lysis of Jurkat cells by RBL granule extracts, 4 hour 51Cr release; format: cell-based; details: granules diluted 1/32
Protocol: WT-Pfp, P5-Pfp or P6-Pfp was isolated from the RBL granules by nitrogen caviatation and percoll density fractionation of the cellular contents as described by Davis et al (J Immunol Methods. 2003, 276(1-2):59-68). RBL cells (1×10^9) were washed three times in PBS, then resuspended at 1×10^8/ml in relaxation buffer (100 mM KCL, 3.5 mM MgCl2, 1 mM PIPES pH 6.8, 1.25 mM EGTA) and lysed in a nitrogen cavitation apparatus at 450 psi for 20 minutes at 4° C. on a rotating platform. The cell lysate was collected following sudden decompression, and the nuclei removed by centrifugation at 2000 rpm for 10 minutes at 4° C. The nuclei were washed twice with 1 ml relaxation buffer and the supernatants were pooled with the supernatant from the first wash. The pooled supernatants were centrifuged at 2000 rpm for a further 5 minutes to remove all cell debris. A 40% percoll density gradient was then formed by mixing 8 ml of adjusted percoll (45 ml percoll and 5 ml 10× relaxation buffer) with 12 ml of relaxation buffer, containing lmM ATP. 5 ml of cell lysate was loaded onto each gradient and centrifuged at 20,000 rpm for 35 minutes at 4° C. The cytotoxic granules, which migrate to the dense region of the gradient, were collected by harvesting 1 ml fractions from the bottom of the gradient using a long spinal tap needle attached to a syringe. The fractions were concentrated (individually) in an ultracentrifuge (Beckman Coulter) at 100,000 rpm for 3 hours at 4° C. and the granules obtained from the surface of the pelleted percoll by washing them into a small volume of resuspension buffer. To release the perforin, the granules were disrupted by resuspension in an equal volume of 2 M NaCl and three cycles of freezing in liquid nitrogen and thawing in a 37° C. waterbath.
Jurkat cells were labelled with 50 μCi ^51Chromium in 100 ul unsupplemented RPMI medium at 37° C. for 1 hour. ^51Cr-labelled cells were then resuspended in HBSS buffer (CSL Ltd.) with or without 2 mM EGTA. […] Granule fraction #8 (determined by western analysis to contain the highest perforin content) was serially diluted in HE buffer and incubated with target cells in a final volume of 200 μl, for 4 hours at 37° C. The spontaneous release of ^51Cr was determined by incubating the target cells with HE buffer alone and the maximum release was determined by adding HCl to a final concentration of 1 M. After 4 hours, the plates were centrifuged at 1500 rpm, 100 μl of supernatant was harvested and the released radioactivity was measured in a Wizard 1470 Gamma counter. Cytotoxicity was expressed as a percentage specific ^51Cr release after subtracting spontaneous release. The percent specific lysis was calculated as follows: 100× [(experimental release—spontaneous release)/(maximum release—spontaneous release)].

sheep RBC membranes = assay: Calcium-dependent membrane binding of recombinant perforin; details: 1 mM CaCl2, sheep RBC
Protocol: (§1) Perforin cDNA was cloned into the pFastBac vector and overexpressed in Sf-21 cells cultured in SF900-II SFM medium using a Bac-to-Bac kit (Invitrogen) and perforin was purified, all according to the manufacturer's instructions. Small amounts of recombinant WT and the G428E perforin mutant protein were obtained.
To study the calcium-dependent membrane binding of perforin, 2×10^6 sheep RBCs were resuspended in 200 μL 20 mM Hepes-150 mM NaCl buffer (pH 7.4) supplemented with 1 mM CaCl2. An aliquot of the purified perforin was added to the cell suspension for 5 min on ice. The cells were pelleted at 16,000 g for 10 s, the supernatant promptly removed, and the cells lysed in ice cold water. The lysate was centrifuged for 20 min at 16,000 g at 4° C. The pellet was washed once, dissolved in SDS-PAGE loading buffer, and analyzed by Western blotting.

[3] = Lytic activity of purified recombinant (baculovirus) perforin; format: biochemical; details: baculovirus expression system
Description: as §1

| Molecule | stability of lytic activity on storage [1] | lysis of sRBC by disrupted granules (haemoglobin release) [2] | specific lysis of Jurkat cells by granules (Jurkat cells) | calcium-dependent plasma membrane binding (sheep RBC membranes) | cytolytic activity of recombinant protein relative to WT perforin [3] |
| --- | --- | --- | --- | --- | --- |
| WT-Pfp: wild type mouse perforin, recombinantly expressed; in b333 WT perforin is recombinant human (protein) PCYTATRSECKQKHKFVPGVWMAGEGMDVTTLRRSGSFPVNTQRFLRPDRTCTLCKNSLMRDATQRLPVAITHWRPHSSHCQRNVAAAKVHSTEGVAREAAANINNDWRVGLDVNPRPEANMRASVAGSHSKVANFAAEKTYQDQYNFNSDTVECRMYSFRLVQKPPLHLDFKKALRALPRNFNSSTEHAYHRLISSYGTHFITAVDLGGRISVLTALRTCQLTLNGLTADEVGDCLNVEAQVSIGAQASVSSEYKACEEKKKQHKMATSFHQTYRERHVEVLGGPLDSTHDLLFGNQATPEQFSTWTASLPSNPGLVDYSLEPLHTLLEEQNPKREALRQAISHYIMSRARWQNCSRPCRSGQHKSSHDSCQCECQDSKVTNQDCCPRQRGLAHLVVSNFRAEHLWGDYTTATDAYLKVFFGGQEFRTGVVWNNNNPRWTDKMDFENVLLSTGGPLRVQVWDADYGWDDDLLGSCDRSPHSGFHEVTCELNHGRVKFSYHAKCLPHLTGGTCLEYAPQGLLGDPPGNRSGAVW | stable under these storage conditions for several months | almost complete RBC lysis | approximately 65% | essentially all the added perforin bound |  |
| recombinant human A91V: recombinant human A91V perforin from the baculovirus expression system (protein, UniProt P14222 22-555, looked up, variant A91V, baculovirus-expressed, recombinant human A91V perforin from the baculovirus expression system) Perforin-1: PCHTAARSECKRSHKFVPGAWLAGEGVDVTSLRRSGSFPVDTQRFLRPDGTCTLCENALQEGTLQRLPLVLTNWRAQGSGCQRHVTRAKVSSTEAVARDAARSIRNDWKVGLDVTPKPTSNVHVSVAGSHSQAANFAAQKTHQDQYSFSTDTVECRFYSFHVVHTPPLHPDFKRALGDLPHHFNASTQPAYLRLISNYGTHFIRAVELGGRISALTALRTCELALEGLTDNEVEDCLTVEAQVNIGIHGSISAEAKACEEKKKKHKMTASFHQTYRERHSEVVGGHHTSINDLLFGIQAGPEQYSAWVNSLPGSPGLVDYTLEPLHVLLDSQDPRREALRRALSQYLTDRARWRDCSRPCPPGRQKSPRDPCQCVCHGSAVTTQDCCPRQRGLAQLEVTFIQAWGLWGDWFTATDAYVKLFFGGQELRTSTVWDNNNPIWSVRLDFGDVLLATGGPLRLQVWDQDSGRDDDLLGTCDQAPKSGSHEVRCNLNHGHLKFRYHARCLPHLGGGTCLDYVPQMLLGEPPGNRSGAVW | undetectable levels after 48 hours |  |  |  | < 10 % of WT |
